Measured values reported in patent publication US20050208610.

Key:
[1] = tested on: Apolipoprotein CIII purified from plasma derived from multiple human donors
[2] = tested on: apolipoprotein CIII fragment corresponding to amino acids 41-79 (SEQ ID NO:4), designated CR001
Sequence of apolipoprotein CIII fragment corresponding to amino acids 41-79 (SEQ ID NO:4), designated CR001 (chain, as listed by the source): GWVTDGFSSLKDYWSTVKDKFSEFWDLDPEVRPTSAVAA

Sequence of Apolipoprotein CIII purified from plasma derived from multiple human donors (chain, as listed by the source): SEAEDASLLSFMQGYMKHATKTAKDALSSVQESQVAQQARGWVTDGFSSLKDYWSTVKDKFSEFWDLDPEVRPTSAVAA

With factor Xa the “factor Xa activity when tested alone on the chromogenic substrate S-2765” value [1] was “neither apoliproprotein CIII nor the apolipoprotein CIII fragment have any direct inhibitory effect on factor Xa activity” and the “factor Xa activity when tested alone on the chromogenic substrate S-2765” value [2] was “neither apoliproprotein CIII nor the apolipoprotein CIII fragment have any direct inhibitory effect on factor Xa activity”.
